Bridges are numbered along the chain shown (N, C = ends). [ ]: non-standard residue; d: D form. Ahx = NCCCCCC(=O)O; βAla = NCCC(=O)O

In assay [1] the target is T1, MC1R (mouse (endogenous in B16/F10), UniProt Q01727 1-315).
T1 construct: also called MCR1R
The assay can be described thus: radioligand binding; MC1R binding affinity (Ki) of the unlabelled peptides determined in B16/F10 melanoma cells; the competing ligand is not named. Conditions: one partner purified.

The target of assay [2] is T1, MC1R. The assay can be described thus: radioligand binding; receptor affinity (Kd) of the 99mTc-labelled peptide; B16/F10 melanoma cells are the only cells named. Conditions: one partner purified.

T1 sequence (Q01727 whole entry): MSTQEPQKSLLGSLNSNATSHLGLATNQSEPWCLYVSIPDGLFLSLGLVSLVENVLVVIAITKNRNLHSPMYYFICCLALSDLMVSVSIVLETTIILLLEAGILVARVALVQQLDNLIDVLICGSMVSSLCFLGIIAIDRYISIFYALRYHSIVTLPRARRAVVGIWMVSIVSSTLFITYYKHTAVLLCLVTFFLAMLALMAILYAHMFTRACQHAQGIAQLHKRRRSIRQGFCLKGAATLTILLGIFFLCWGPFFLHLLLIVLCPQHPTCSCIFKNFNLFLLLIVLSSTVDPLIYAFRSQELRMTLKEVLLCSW

The molecule CXXXDHFRWG (Ahx at 2, βAla at 3, Nle at 4 (each written X); D-Phe at 7; C-terminal amide) [NAP-NS1, linear H-Cys-Ahx-βAla-Nle-Asp-His-D-Phe-Arg-Trp-Gly-NH2] gave an inhibitory constant (Ki) with MC1R [1] of 0.9 ± 0.3 nM.

B1: [99mTc(N)(NAP-NS1)(PNP3)]+ (peptide)
chain: CXXXDHFRWG
modifications: Ahx at 2, βAla at 3, Nle at 4 (each written X); D-Phe at 7; C-terminal amide; [99mTc(N)(PNP3)] label (PNP3 = N,N-bis(dimethoxypropylphosphinoethyl)methoxyethylamine)
The molecule B1 returned a Kd in the assay with MC1R [2] of 7.1 ± 0.5 nM.

B2: NAP-NS2, lactam bridge-cyclized H-Cys-Ahx-βAla3-c[Lys4-Glu-His-D-Phe-Arg-Trp-Glu10]-Arg11-Pro-Val-NH2 (peptide)
chain: H-C[Ahx][βAla]KEH[dF]RWERPV-NH2
modifications: lactam 4-10
SMILES: CC(C)[C@H](NC(=O)[C@@H]1CCCN1C(=O)[C@H](CCCNC(=N)N)NC(=O)[C@@H]1CCC(=O)NCCCC[C@H](NC(=O)CCNC(=O)CCCCCNC(=O)[C@@H](N)CS)C(=O)N[C@@H](CCC(=O)O)C(=O)N[C@@H](Cc2c[nH]cn2)C(=O)N[C@H](Cc2ccccc2)C(=O)N[C@@H](CCCNC(=N)N)C(=O)N[C@@H](Cc2c[nH]c3ccccc23)C(=O)N1)C(N)=O
With B2, the Ki in the assay with MC1R [1] stood at 7.1 ± 2.4 nM.

Broadly, the Ki is a dissociation constant, usually derived from enzyme kinetics or from competition with a known ligand. A higher Ki goes with weaker binding. What is called Kd is the equilibrium constant for the complex coming apart.
